The target in test [1] is human recombinant HMGB1 protein (high-mobility group box-1) (human) (UniProt P09429).
For test [2] the target is unchanged. The test is described as follows: SPR; human recombinant HMGB1 immobilised on a CMDH chip (immobilisation buffer 10 mM S.A., pH 4.5); analytes flowed at 30 uL/min; running buffer PBS pH 7.4; association and dissociation 3 min each; room temperature; Reichert SR7500DC, Scrubber2.

Chain of human recombinant HMGB1 protein (high-mobility group box-1) (human) (P09429 whole entry): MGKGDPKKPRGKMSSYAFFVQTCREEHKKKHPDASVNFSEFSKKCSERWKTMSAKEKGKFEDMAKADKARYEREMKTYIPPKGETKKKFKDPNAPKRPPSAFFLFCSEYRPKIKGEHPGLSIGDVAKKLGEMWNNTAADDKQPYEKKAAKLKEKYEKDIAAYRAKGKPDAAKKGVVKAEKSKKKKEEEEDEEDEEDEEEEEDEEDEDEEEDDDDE

A word on the Kd: it is a measure of binding affinity in units of concentration. As to “lactoferrin-glycyrrhizin conjugate Lf-GL (1:10)”, the reduction of HUVEC proliferation in Transwell co-culture with U87MG (CCK-8, 24 h, 100 uM GL equivalent) in test [1] worked out at 13%. Besides, the Kd in test [2] came out at 23.1 nM.
On to “lactoferrin-glycyrrhizin conjugate Lf-GL (1:4)”, for which, in test [2], the Kd turned out to be 595 nM.
In the case of “lactoferrin human (Lf) (natural protein)”, the reduction of HUVEC proliferation in Transwell co-culture with U87MG (CCK-8, 24 h, 100 uM GL equivalent) in test [1] was determined as 8.2%. In addition, the Kd in test [2] was 165 nM.
For “lactoferrin-glycyrrhizin conjugate Lf-GL (1:15)”, the Kd in test [2] came to 32.3 nM.

Source of the values: paper PMC10200060, “Inhibition of DAMP actions in the tumoral microenvironment using lactoferrin-glycyrrhizin conjugate for glioblastoma therapy” (Biomaterials Research, 2023).
